Measured values: patent US6656907B1, “Method of treating gastric ulcer by administration of epidermal growth factor” (University Technologies International Inc., priority 1995, dated 2003)

Columns and labels:
[1] = Stability of lyophilized EGF in drinking water; assay type: physicochemical; conditions: lyophilized EGF added to drinking water
[2] = test system: intestinal brush border membrane nutrient absorption; test: Nutrient uptake into brush border membrane vesicles after jejunal loop treatment; assay type: in vivo, New Zealand White rabbits
Description: Subsequent experiments examined the effects of EGF and an inhibitor of the EGF receptor (tyrphostin 51) on intestinal brush border membrane nutrient absorption. Tyrphostin 51is a specific inhibitor of tyrosine kinase, which is a critical element of the EGF intracellular signalling cascade. Studies were performed in New Zealand White rabbits (700-1000 g; approximately 8 weeks of age). Two 10 cm blind jejunal loops separated by a 1 cm segment were tied off starting 5 cm distal to the ligament of Treitz. In separate experiments either EGF (60 ng/ml), EGF+tyrphostin (10 μM), or tyrphostin (10 μM) alone in 1.5 ml of saline vehicle was administered to one of the loops. The other loop received vehicle alone and served as a paired control. After one hour, the loops were removed and the mucosa scraped for preparation of brush border membrane vesicles. Nutrient (D-glucose and L-proline) uptake into brush border membrane vesicles was determined by established techniques. Luminal EGF stimulated a significant increase (p<0.001) in brush border membrane glucose (EGF 16.1±1.0 vs CONTROL 11.5±0.9 nmol/min/mg protein; n=5) and proline (EGF 3.8±0.5 vs CONTROL 2.6±0.3 nmol/min/mg protein; n=5) transport compared to controls. […] Subsequently, a further series of experiments examined the effect of tyrphostin alone on brush border glucose transport. […] Thus, EGF treatment increases nutrient absorption and promotes weight gain. Conversely, tyrphostin treatment may promote a decrease in weight gain or weight loss and therefore may be useful in the treatment of obesity. Tyrphostin treatment may also reduce the intestinal uptake of toxic or adverse substances.

E. coli = E. coli translocation across confluent CaCo2 monolayers on Transwell membranes; assay type: cell-based, human
Description: (§1) Two×10^8 human pathogenic Salmonella typhimurium or E. coli were added to the apical surface of confluent human CaCo2 monolayers grown on Transwell membranes (porosity 3.0 μm). Monolayers received apical EGF (100 μM) or PBS 15 min prior to infection. Each hour post infection (0-7 h), medium under the membrane was replaced and bacterial transepithelial migration rate (CFU/h) was calculated.

Salmonella typhimurium = Salmonella typhimurium translocation across confluent CaCo2 monolayers on Transwell membranes; assay type: cell-based, human; conditions: apical EGF 100 μM 15 min prior to infection
Description: as §1

[3] = Weight gain in healthy rabbits given daily oral EGF; assay type: in vivo, New Zealand white rabbits
Description: EGF was tested for its potential benefits on weight gain. One group of New Zealand white rabbits (6 week old, 500-700 g) received daily oral doses of recombinant human EGF (100 μg/kg body weight) and control animals were given saline only. […] Given the linear aspect of both curves, continued feeding with EGF is likely to produce a steadily increasing. effect on weight gain.

RDEC-E. coli = RDEC-E. coli intestinal infection in rabbits, oral EGF; assay type: in vivo, New Zealand White rabbits
Description: Twenty-eight New Zealand White rabbits (6 wk-old) were studied in 3 groups: 1) Controls (Con, n=9), 2) Infected with 1×10^7 RDEC-E. coli (I, n=10), and 3) Infected-treated with 60 μg oral EGF daily for 10 days, starting 3 days prior to infection (I-EGF, n=9). Animals were assessed daily for weight gain, rectal passage of E. coli, and presence of diarrhea. Seven days post-infection, animals were killed and mucosa obtained from the jejunum (JEJ), ileum (ILE), and proximal colon (PROX) for quantitation of E. coli, and from the jejunum for mucosal enzyme assays.

[4] = jejunum mucosa, 7 days after inoculation

B1: epidermal growth factor (protein, UniProt P01133 23-1207, looked up)
Pro-epidermal growth factor: PQHWSCPEGTLAGNGNSTCVGPAPFLIFSHGNSIFRIDTEGTNYEQLVVDAGVSVIMDFHYNEKRIYWVDLERQLLQRVFLNGSRQERVCNIEKNVSGMAINWINEEVIWSNQQEGIITVTDMKGNNSHILLSALKYPANVAVDPVERFIFWSSEVAGSLYRADLDGVGVKALLETSEKITAVSLDVLDKRLFWIQYNREGSNSLICSCDYDGGSVHISKHPTQHNLFAMSLFGDRIFYSTWKMKTIWIANKHTGKDMVRINLHSSFVPLGELKVVHPLAQPKAEDDTWEPEQKLCKLRKGNCSSTVCGQDLQSHLCMCAEGYALSRDRKYCEDVNECAFWNHGCTLGCKNTPGSYYCTCPVGFVLLPDGKRCHQLVSCPRNVSECSHDCVLTSEGPLCFCPEGSVLERDGKTCSGCSSPDNGGCSQLCVPLSPVSWECDCFPGYDLQLDEKSCAASGPQPFLLFANSQDIRHMHFDGTDYGTLLSQQMGMVYALDHDPVENKIYFAHTALKWIERANMDGSQRERLIEEGVDVPEGLAVDWIGRRFYWTDRGKSLIGRSDLNGKRSKIITKENISQPRGIAVHPMAKRLFWTDTGINPRIESSSLQGLGRLVIASSDLIWPSGITIDFLTDKLYWCDAKQSVIEMANLDGSKRRRLTQNDVGHPFAVAVFEDYVWFSDWAMPSVMRVNKRTGKDRVRLQGSMLKPSSLVVVHPLAKPGADPCLYQNGGCEHICKKRLGTAWCSCREGFMKASDGKTCLALDGHQLLAGGEVDLKNQVTPLDILSKTRVSEDNITESQHMLVAEIMVSDQDDCAPVGCSMYARCISEGEDATCQCLKGFAGDGKLCSDIDECEMGVPVCPPASSKCINTEGGYVCRCSEGYQGDGIHCLDIDECQLGEHSCGENASCTNTEGGYTCMCAGRLSEPGLICPDSTPPPHLREDDHHYSVRNSDSECPLSHDGYCLHDGVCMYIEALDKYACNCVVGYIGERCQYRDLKWWELRHAGHGQQQKVIVVAVCVVVLVMLLLLSLWGAHYYRTQKLLSKNPKNPYEESSRDVRSRRPADTEDGMSSCPQPWFVVIKEHQDLKNGGQPVAGEDGQAADGSMQPTSWRQEPQLCGMGTEQGCWIPVSSDKGSCPQVMERSFHMPSYGTQTLEGGVEKPHSLLSANPLWQQRALDPPHQMELTQ
modifications: Pro-epidermal growth factor
In the case of B1, the “stability in drinking water” value [1] is reported as “proven stable”, the “brush border membrane proline transport” value ([2]; EGF 60 ng/ml luminal, one hour, n=5, control 2.6±0.3) is reported as 3.8±0.5 nmol/min/mg protein and the “brush border membrane glucose transport” value ([2]; EGF 60 ng/ml luminal, one hour, n=5, control 11.5±0.9) is reported as 16.1±1.0 nmol/min/mg protein. For the same molecule, the “glucose absorption in intact tissue” value ([2]; luminal EGF, initial experiments) was “increased”, the “microorganisms adhering to the epithelial surface (scanning electron microscopy)” value (E. coli; Transwell membrane studies, bacterium not specified) was “significantly higher numbers of microorganisms adhering to the epithelial surface of untreated monolayers” and the “delay of initial E. coli translocation” value (E. coli; apical EGF 100 μM 15 min prior to infection) was 1 h. For the same molecule, the “inhibition of rate of E. coli invasion (transepithelial migration rate)” value (E. coli; apical EGF 100 μM, after the initial delay) was greater than 95%, the “translocation of S. typhimurium” value (Salmonella typhimurium) was “completely abolished” and the “mean cumulative weight gain” value ([3]; at 9 days, 100 μg/kg body weight daily oral, n=10, controls 394±16 g) was 422 ± 27 g. For the same molecule, the “slope of the linear regression curve of weight gain” value ([3]; vs untreated controls, P 0.002, FIG. 1) was “significantly greater”, the “stool cultures for E. coli” value (RDEC-E. coli; I-EGF group) was “positive” and the animals with diarrhea (RDEC-E. coli; I-EGF group, 4 animals in infected group) was “none”. The “effect on infection-induced reduced weight gain” value (RDEC-E. coli; I-EGF vs I) was “prevented”, the “effect on jejunum maltase and sucrase activities” value (RDEC-E. coli; I-EGF vs I) was “prevented the decrease” and the “reduction of E. coli colonization in the jejunum, ileum and proximal colon” value (RDEC-E. coli; compared to infected (I)) was greater than 85%. The “E. Coli ILE” value (RDEC-E. coli; ileum mucosa, 7 days after inoculation) was 4.88 ± 0.2 Log10 CFU/cm, the “% bacterial clearance in infected + EGF group, ILE” value (RDEC-E. coli; ileum, vs infected) was 95% and the “Cumulative Weight Gain” value (RDEC-E. coli; infected rabbits, 60 μg oral EGF daily for 10 days, 7 days after inoculation) was 316 ± 16 grams. The “E. Coli JEJ” value (RDEC-E. coli; [4]) was 3.10 ± 0.4 Log10 CFU/cm, the “MALT (jejunum maltase activity)” value (RDEC-E. coli; [4]) was 436 ± 48 u/g and the “SUC (jejunum sucrase activity)” value (RDEC-E. coli; [4]) was 89 ± 19 u/g. The “% bacterial clearance in infected + EGF group, JEJ” value (RDEC-E. coli; jejunum, vs infected) was 92%, the “E. Coli PROX” value (RDEC-E. coli; proximal colon mucosa, 7 days after inoculation) was 4.09 ± 0.2 Log10 CFU/cm and the “% bacterial clearance in infected + EGF group, PROX” value (RDEC-E. coli; proximal colon, vs infected) was 85%.
